Assays:
[1] = molecular target: His-tagged StBIN2 protein (potato (Solanum tuberosum))
[2] = molecular target: StBIN2-M (potato (Solanum tuberosum))

His-tagged StSN2 protein (from UniProt Q93X17 24-104) (natural protein)
StBIN2 kinase activity as ATP consumption (Kinase-Lumi), 5 μg StBIN2 with varying masses of StSN2 up to 15 μg, against StBIN2 alone [1]: 10 fold | ATP consumed by StBIN2-M with StSN2 against StBIN2 with StSN2; 5 μg kinase + 5, 10 and 15 μg StSN2 (reduced by 63%, 14% and 12%) [2]: 63 % reduction

— paper PMC10753161
